Experimental data from publication PMC5285506.

Test system: T1, Rob (Staphylococcus aureus FK300 (rsbU-repaired NCTC8325-4 derivative)), ORF:92c4d64d
T1 sequence: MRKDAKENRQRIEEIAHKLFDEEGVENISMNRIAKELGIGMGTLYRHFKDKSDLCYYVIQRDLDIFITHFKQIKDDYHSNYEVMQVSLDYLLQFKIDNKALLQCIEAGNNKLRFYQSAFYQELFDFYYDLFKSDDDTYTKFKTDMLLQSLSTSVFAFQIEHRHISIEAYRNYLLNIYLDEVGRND
Assay: EMSA
Details: 10 mM HEPES pH 8.0, 60 mM KCl, 4 mM MgCl2, 0.1 mM EDTA, 0.1 mg/ml BSA, 0.25 mM DTT, 5% glycerol, 1 ug salmon sperm DNA and 1 ug poly(dI-dC) per 20 ul, room …

Row | Sequence | binding
1 | ACAAATATTTCCGTTTAATTATAACAACAATCTATTGCAAATTAAAATACTATCAATTACCATATGGCTTACAACCTAACTAACGAAAGGTAGGTAAAGGAATTGCAA (double strand) [SHORT-1 (108 bp)] | binds
2 | TTGCAATTCCTTTACCTACCTTTCGTTAGTTAGGTTGTAAGCCATATGGTAATTGATAGTATTTTAATTTGCAATAGATT (double strand) [SHORT-2] | no binding
